Data on two substances can be found in PMC3501574.

The test deals with Biotinylated IL-2Rβ (human) (UniProt P14784). Description: SPR.

IL-15 (1–114) (ligand): the Kd (as a rule, a measure of binding affinity in units of concentration) turned out to be 438 nM.
To “IL-15—IL-15Rα complex (IL-15 co-expressed with IL-15Rα (1–64))” belongs 3 nM.
